From US20230080224A1 (AGENCY FOR SCIENCE TECHNOLOGY AND RESEARCH, published 2023)

T1: ALPI (screening and SPR/ELISA protein) (UniProt P09923 20-503, limits assumed)
T1 sequence (looked up): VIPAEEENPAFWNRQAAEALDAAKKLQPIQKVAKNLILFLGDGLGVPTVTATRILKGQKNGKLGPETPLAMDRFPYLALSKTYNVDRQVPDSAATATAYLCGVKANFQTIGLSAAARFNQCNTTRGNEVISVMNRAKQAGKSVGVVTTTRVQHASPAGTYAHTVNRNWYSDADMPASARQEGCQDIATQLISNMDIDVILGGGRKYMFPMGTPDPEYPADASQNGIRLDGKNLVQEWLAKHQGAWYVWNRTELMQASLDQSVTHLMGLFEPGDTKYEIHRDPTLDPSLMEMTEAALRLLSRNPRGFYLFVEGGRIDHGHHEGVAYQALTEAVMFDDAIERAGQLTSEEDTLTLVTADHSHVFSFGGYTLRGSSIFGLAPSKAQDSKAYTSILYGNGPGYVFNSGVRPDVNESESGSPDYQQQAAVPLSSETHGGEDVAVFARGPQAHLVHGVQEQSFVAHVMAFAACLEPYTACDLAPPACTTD

T2: human ALPPL2 (recombinant protein) (human, UniProt P10696 20-503)
T2 chain: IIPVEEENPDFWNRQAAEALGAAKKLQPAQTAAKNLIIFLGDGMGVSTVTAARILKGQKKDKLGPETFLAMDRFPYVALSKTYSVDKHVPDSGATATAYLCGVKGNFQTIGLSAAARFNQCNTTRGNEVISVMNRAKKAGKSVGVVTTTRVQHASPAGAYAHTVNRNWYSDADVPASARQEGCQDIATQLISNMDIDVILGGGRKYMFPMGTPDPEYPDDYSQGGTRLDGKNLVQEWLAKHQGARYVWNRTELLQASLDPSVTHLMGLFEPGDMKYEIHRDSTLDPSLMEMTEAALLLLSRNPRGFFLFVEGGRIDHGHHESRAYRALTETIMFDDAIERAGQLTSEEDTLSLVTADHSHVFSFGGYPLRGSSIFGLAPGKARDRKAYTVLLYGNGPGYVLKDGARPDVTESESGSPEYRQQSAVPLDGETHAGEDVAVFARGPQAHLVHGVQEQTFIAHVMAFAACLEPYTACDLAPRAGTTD


Experiments:
[1] = target: T3, human ALPPL2 (recombinant protein) (human, UniProt P10696 20-503, limits assumed); assay: screen of rabbit B-cell clones by ELISA and FACS
T3 construct: biotinylated where captured on streptavidin
Description: (§1) Specific clones were screened and identified by ELISA and high throughput flow cytometry (FIG. 3). Rabbit kidney cells were transfected with either truncated (for ELISA screen) or full-length (for FACS screen) ALPI and ALPPL2.

[2] = target: T1, ALPI (screening and SPR/ELISA protein); assay: screen of rabbit B-cell clones by ELISA and FACS
Description: as §1

[3] = target: T2, human ALPPL2 (recombinant protein); assay: BLI; single concentration

binding result [1] | binding result [2] | Kd [3] [nM] | Binder
binds | no binding | – | AB1C14 (antibody, V domains shown, Rabbit antibody cloned from a single B cell) VH: QSLEESGGDLVKPGASLTLTCTASGFSFSSNYWICWVRQAPGKGLEWIACIATGSSGSTYYASWAKGRFTISKTSSTTVTLQMTSLTAADTATYFCARGEYTYGYVEYAIVTQYYFDLWGPGTLVTVSS VL: FEMTQTPSSVSAAVGGTVTINCQASQNIYSNLAWYQQKPGQRPKLLIYGASNLESGVPSRFKGSGSGTEYTLTISDLECDDAATYYCQSADYIGSAYNAFGGGTEVVVK
binds | no binding | – | AB1C32 (antibody, V domains shown, Rabbit antibody cloned from a single B cell) VH: QEQLEESGGDLVKPGGTLTLTCKASGIDFSSDYYMCWVRQAPGKGLEWIACIYTGSSDDTYYASWAKGRFTISKTSSPTVALQMTSLTAADTATYFCARGGYGGKDLWGPGTLVTVSS VL: VVMTQTPASVEAAVGGTVTIKCQASQSIGSLLAWYQQKPGQPPNLLIYWASTLASGVPSRFKGSGSGTEFTLTISDLECDDAATYYCQCTYGSSGSSSYLNAFGGGTEVVVK
binds | no binding | – | AB1C11 (antibody, V domains shown, Rabbit antibody cloned from a single B cell) VH: QSLEESGGDLVKPGASLTLTCKASGFTISSIWICWVRQAPGKGLEWIACIYAGSDGGSYYASWARGRFTISKTSSTTVTLQMTSLTAADTATYFCARASNSWQYGYAGYGNYKDYFNLWGPGTLVTVSS VL: FELTQTPSSVEAVVGGTVTINCQASESISNLLAWYQQKSGQPPKVLIYKASALPSGVSSRFKGSGSGTEFTLTISDLECADAATYYCQSYYGSSDTGNTFGGGTEVVVK
binds | no binding | 1.4 | AB1C21 (antibody, V domains shown, Rabbit antibody cloned from a single B cell) VH: QQQLVESGGGLVKPGASLTLTCKASGFSFSSGYDMCWVRQAPGKGLEWIACIYTGDGSTYYASWARGRFTISKTSSTTVTLQMTSLTAADTATYFCAREDVSSGDYTFNLWGPGTLVTVSS VL: YDMTQTPASVEVTVGGTVTIKCQASEDIYSGLAWYQQKPGQRPKLLIYKASNLASGVPSRFSGSGSGTEFTLTISGVECADAATYYCQQGVTYSNVDNTFGGGTEVVVK
binds | no binding | – | AB1C23 (antibody, V domains shown, Rabbit antibody cloned from a single B cell) VH: QSLEESGGDLVKPGASLTLTCTASGFSFSSTYYMCWVRQAPGKGLEWIACIYTGSTGSTYYASWAKGRFTGSKTSSTTVTLQMTSLTAADTATYFCARGDYTYAYAGGAHVTNYYFDLWGPGTLVTVSS VL: LVMTQTPSSVSAAVGGTVTINCQASQNIYSNLAWYQQKPGQRPKLLIFGASNLESGVPSRFKGSGSGTEFTLTISDLECDDAATYYCQTADYSSSTDWGAFGGGTEVVVK
binds | no binding | 0.6 | AB1C15 (antibody, V domains shown, Rabbit antibody cloned from a single B cell) VH: QSLEESGGDLVKPGASLTLTCTASGFSFSSSYYMCWVRQAPGKGLEWIACIYTTYGGTWYASWAKGRFTISKTSSTTVTLQMTSLTDADTATYFCARSSISDVTYFNLWGPGTLVTVSS VL: DIVMTQTPASVEAAVGGTVTIKCQASQSISNYLAWYQQKPGQPPELLIYRASTLESGVPSRFKGSGSGTGFTLTISDLECADAATYYCQSYYDNNNYAFGGGTEVVVK
binds | no binding | 4.1 | AB1C35 (antibody, V domains shown, Rabbit antibody cloned from a single B cell) VH: QEQLKESGGDLVKPGASLTLTCTASGFTLSTYWVCWVRQAPGKGLEWIGCIDTVSSGDTYFASWAKGRFTGSKTSSTTVTLQMTSLTAADTATYFCARRTGSRWTLWGPGTLVTVSS VL: QVLTQTPSSVSAGVGGTVTINCQASESVYNNNYLSWYQQKPGQPPKLLIYQASTLASGVPSRFKGSGSGTQFTLTISDVQCDDAATYYCLGAFVSNGWYFAFGGGTEVVVK
binds | no binding | – | AB1C17 (antibody, V domains shown, Rabbit antibody cloned from a single B cell) VH: QEQLKESGGDLVKPGASLTLTCTASGFTLSTYWVCWVRQAPGKGLEWIGCIDTVSSGDTYFASWAKGRFTGSKTSSTTVTLQMTSLTAADTATYFCARRTGSGWTLWGPGTLVTVSS VL: LVMTQTPSPVSAAVGGTVTISCQSSQSVYNNNYLAWFQQNPGQPPKLLIYWASKLASGVPSRFKGSGSGTQFTLTISDVQCDDAATYYCLGAYVSNGWYFAFGGGTEVVVK
binds | no binding | – | AB1C28 (antibody, V domains shown, Rabbit antibody cloned from a single B cell) VH: QEQLKESGGDLVKPGASLTLTCTASGFTLSTYWVCWVRQAPGKGLEWIGCIDTVSSGDTYFASWAKGRFTGSKTSSTTVTLQMTSLTAADTATYFCARRTGSGWTLWGPGTLVTVSS VL: LVMTQTPSPVSAAVGGTVTISCQSSQSVYNNNYLAWFQQNPGQPPKLLIYWASKLASGVPSRFKGSGSGTQFTLTISDVQCDDAATYYCLGAYVSNGWYFAFGGGIEVVVK
binds | no binding | – | AB1C34 (antibody, V domains shown, Rabbit antibody cloned from a single B cell) VH: QSLEESGGDLVKPGASLTLTCTASGFDFSSNGMCWVRQAPGKGLEWIACIYVDSSDSTYYASWVNGRFTISKTSSTTVTLQMTSLTAADTATYFCARGYGYVGSAMDLWGQGTLVTVSS VL: NIVMTQTPSPVSGAVGGTVTIKCQASQSISNELAWFQQKPGQRPKLLIYGASTLESGVPSRFSGSGSGTEFTLTISDLECADAATYYCQSAYYSSSSSYANTFGGGTEVVVK
binds | no binding | – | AB2C103 (antibody, V domains shown, Rabbit antibody cloned from a single B cell) VH: QSLEESGGDLVKPGASLTLTCTASGFDFSSYYWICWVRQAPGKGLEWIACIYGGSSGSTYYATWAKGRFTISETSSTTVTLQMTSLTAADMATYFCARSLYTWRYADYAASTLNLWGPGTLVTVSS VL: AVLTQTPSPVSAAVGGTVSISCQSSQSVYNVNLLAWYQQKPGQPPKLLIYETSKLESGVPSRFSGSGSGTQFTLTISDVQCDDAATYYCAGGYSSSKDNSFGGGTEVVVK
– | no binding | – | AB1C13 (antibody, V domains shown, Rabbit antibody cloned from a single B cell) VH: QEQLEESGGDLVKPEGSLTLTCTASGFSFSWICWVRQAPGKGLEWIACIYAGSSAKTYYASWAKGRFTISKASSTTVTLQMTSLTAADTATYFCARASNYYRYGVAGYADYTGYFNLWGPGTLVTVSS VL: FELTQTPASVEAAVGGTVTIKCQASQSISSWLAWYHQKPGQRPKLLIYGTSTLASGVPSRFKGSGSGTEFTLTISDLECADAATYYCQNYGGSSSGDAFGGGTEVVVK
binds | no binding | – | AB2C128 (antibody, V domains shown, Rabbit antibody cloned from a single B cell) VH: QSLEESGGDLVKPGASLTLTCTASGFSFSSSYWIYWVRQAPGKGLEWIACIYTASRGSIYYASWTKGRFTISKTSSTTVTLQMTSLTAADTATYFCARGPDYTYGYIGDALTRLDLWGQGTLVTVSS VL: AVLTQTPSPVSAAVGGTVSISCQSSQSVYDNNWLAWYQQKAGQPPKLLIYAASTLSSGVPSRFKGSGSGIEFTLTISDVQCDDAATYYCAGGYSSTSDIEDNTFGGGTEVVVK
binds | no binding | – | AB2C135 (antibody, V domains shown, Rabbit antibody cloned from a single B cell) VH: QSLEESGGDLVKPGASLTLTCTASGFSFSSSYWICWVRQAPGKGLEWIACIYTASRDSIYYASWAKGRFTISKTSSTTVTLQMTSLTAADTATYFCARGPYYSYAYIGDALTRLDLWGQGTLVTVSS VL: AVLTQTPSPVSAAVGGTVSISCQSSQSVYDNNWLAWYQQKPGQPPKLLIYEASKLASGVPSRFKGSGSGTQFTLTISGVQCDDASTYYCAGGYSSSSDIEDNTFGGGTEVVVK
